Common to all, as to experiment: ITC
Series [1] has as its target T1, HRFYRLAN peptide (RNA dependent RNA polymerase) (SARS-CoV-2, UniProt P0DTD1).
T1 chain: HRFYRLAN

The target of series [2] is T2, NRKRISN peptide (spike RBD) (SARS-CoV-2, UniProt P0DTC2).
T2 chain: NRKRISN

Series [3] addresses T3, YRLFRK peptide (spike RBD) (SARS-CoV-2, UniProt P0DTC2).
T3 chain: YRLFRK

In the case of GGTTGGTGTGGTTGG (structured_DNA) [BC 007], the values for the equilibrium dissociation constant (Kd) in series [1] and in series [3] were 54.7 ± 0.6 µM and 86.7 ± 1.2 µM, respectively. In addition, in series [2], the binding result was “no binding”.

Values taken from publication PMC7605794.
